No end group written: not given here. *: point of attachment. FITC = O=C1OC2(c3ccc(O)cc3Oc3cc(O)ccc32)c2ccc(NC(=S)*)cc21
Biological target: T1, Full-length S. cerevisiae Pex5 (S. cerevisiae, UniProt P35056 1-612)
T1 sequence: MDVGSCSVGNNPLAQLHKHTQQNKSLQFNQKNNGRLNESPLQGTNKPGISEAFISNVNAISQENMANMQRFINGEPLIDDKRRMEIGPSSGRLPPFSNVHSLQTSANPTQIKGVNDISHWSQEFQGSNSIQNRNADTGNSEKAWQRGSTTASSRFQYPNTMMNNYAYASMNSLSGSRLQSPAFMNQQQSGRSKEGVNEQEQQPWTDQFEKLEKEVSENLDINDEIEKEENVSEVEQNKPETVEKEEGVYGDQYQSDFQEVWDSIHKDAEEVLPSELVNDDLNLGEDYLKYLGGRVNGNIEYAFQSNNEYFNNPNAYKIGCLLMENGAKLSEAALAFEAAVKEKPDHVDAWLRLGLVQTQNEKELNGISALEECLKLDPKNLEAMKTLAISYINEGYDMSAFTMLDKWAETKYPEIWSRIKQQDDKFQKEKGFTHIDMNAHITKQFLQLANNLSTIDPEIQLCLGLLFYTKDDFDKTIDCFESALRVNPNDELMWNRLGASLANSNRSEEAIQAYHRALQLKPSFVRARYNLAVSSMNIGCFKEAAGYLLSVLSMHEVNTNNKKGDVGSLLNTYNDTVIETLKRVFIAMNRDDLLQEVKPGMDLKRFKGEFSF
Assay: fluorescence polarisation

Going from {FITC}-YARVKRSSRL [Lys1 peptide (FITC-YARVKRSSRL)] to {FITC}-YNENKRKAKL [Cat2 peptide (FITC-YNENKRKAKL)], the Kd rises from 29.3 ± 3.65 nM to 49.9 ± 4.1 nM (1.7-fold).

Going from {FITC}-YKSSRNKSKL [Pcs60 peptide (FITC-YKSSRNKSKL)] to {FITC}-GMDELYKSKL [mCherry-SKL peptide (FITC-GMDELYKSKL)], the Kd rises from 455 ± 43.8 nM to 9840 nM (22-fold).
